Literature values as cited in article PMC7887631.

Molecular target: Prion protein (PrPC) (UniProt P04156)

Substance: STI1 (from UniProt P31948)
- Kd: 100 nM
